Laboratory results taken from patent publication US8999342B2, “Anti-fibroblast activation protein antibodies and methods and uses thereof” (Ludwig Institute for Cancer Research, Ltd., priority 2009, dated 2015).
“Also recorded” adds a separate entry of the source.

Experiments:
[1] = molecular target: T1, FAP (Homo sapiens, UniProt Q12884); conditions: cited from earlier work
T1 sequence (Q12884 1-760): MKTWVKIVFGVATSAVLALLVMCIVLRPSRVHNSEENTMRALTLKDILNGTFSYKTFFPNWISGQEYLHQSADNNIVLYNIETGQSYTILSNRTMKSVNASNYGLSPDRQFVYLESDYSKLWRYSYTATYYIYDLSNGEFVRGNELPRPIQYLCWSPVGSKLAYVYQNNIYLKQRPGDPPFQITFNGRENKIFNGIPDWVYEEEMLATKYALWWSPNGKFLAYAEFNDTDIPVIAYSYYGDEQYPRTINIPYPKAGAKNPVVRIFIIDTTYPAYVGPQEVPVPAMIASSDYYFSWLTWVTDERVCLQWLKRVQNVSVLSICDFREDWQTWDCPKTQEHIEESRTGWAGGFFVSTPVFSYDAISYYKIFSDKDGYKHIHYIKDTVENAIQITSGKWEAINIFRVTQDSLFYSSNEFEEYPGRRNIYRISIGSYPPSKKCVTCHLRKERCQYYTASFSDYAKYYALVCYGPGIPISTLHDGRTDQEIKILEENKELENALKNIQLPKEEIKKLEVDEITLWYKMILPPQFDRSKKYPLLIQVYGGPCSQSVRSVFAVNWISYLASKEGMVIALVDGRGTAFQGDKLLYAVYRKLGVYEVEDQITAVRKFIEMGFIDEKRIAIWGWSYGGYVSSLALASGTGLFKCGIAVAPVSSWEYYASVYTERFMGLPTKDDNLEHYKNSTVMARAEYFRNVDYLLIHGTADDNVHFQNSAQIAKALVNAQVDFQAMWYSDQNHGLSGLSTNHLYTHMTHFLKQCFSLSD

[2] = test system: HT1080FAP cells; assay: Internalization of FAP-antibody complexes by fluorescence microscopy; type: cell-based; conditions: DyLight 488 labelled antibody, 37° C., two hours, acidic wash
Protocol: HT1080FAP cells were incubated with fluorescence labelled anti-FAP antibody Esc11 DYLIGHT® […] (flurorochrome conjugated antibody, ThermoScientific). […] When cells were warmed up to 37° C., rapid internalisation of FAP-Esc11 complexes could be detected with cytoplasmatic spots and vesicular accummulation (FIG. 11B).
Methods: HT1080FAP were grown on fibronectin coated glas slides over night. The cells were then treated with DYLIGHT® (Thermo Scientific) labeled ESC11IgG at either 4° C. or 37° C. for indicated time points. The cover slides were then mounted with flouromount for fluorescence microscopy. ESC11 DYLIGHT® 488 was detected at extention wavelaength of 488 nm and an emission of 518 nm. The results are depicted in FIG. 11.

[3] = molecular target: T1, FAP; assay: Competition assay on HT1080hFAP cells by flow cytometry; type: binding; set-up: expressed in transfected cells; host or cells: HT1080 (FAP-transfected); conditions: IgG at 5 ug/ml before ESC11/ESC14 Fab fragments; HT1080FAP cells, 4° C.
Protocol: For measuring the competitive binding of ESC11 and ESC14, Fab fragments were titered on HT1080hFAP cells and binding was determined by flow cytometry. The concentration resulting in 90% of the maximal binding was used for the competition assay. HT1080FAP were incubated with the indicated antibodies at 5 ug/ml for 20 min at 4° C., then the ESC11-/ESC14 Fab fragments or PBS added at the pre-determined concentrations and incubated for 20 min at 4° C. Cells were washed once with PBS at 4° C. and fixed with 2% PFA on ice. Bound Fab fragment was detected by the myc-tag with biotinylated anti-myc and PE conjugated streptavidin. Cells were then analyzed by flow cytometry as described.

[4] = molecular target: T1, FAP; assay: Antibody mediated down-regulation of FAP expression; type: cell-based; set-up: expressed in transfected cells; host or cells: HT1080 (FAP-transfected); conditions: FAP-transfected tumor cell lines (HT1080FAP), over night incubation, F19 staining
Protocol: For detection of loss of FAP expression, sub-confluent HT1080FAP cultures were trypsinized, washed with PBS and resuspended in RPMI, 10% FBS at 5×10^5 cells and 0.5 ml per well seeded in 12 well cell culture plates and the indicated concentration of ESCHIgG was added. After over night incubation, cells were trypsinized washed and stained with 10 ug/ml F19 followed by FITC-conjugated polyclonal goat anti-mouse. Fluorescence intensity of the cells was analyzed by flow cytometry. % FAP expression was calculated (100/(signal 0 ug/ml ESC11IgG−background signal))*(signal with ESC11IgG−backgroundsignal). One representative of three independent experiments is shown.

[5] = molecular target: T2, CD26 (Homo sapiens, UniProt P27487); assay: Binding specificity by ELISA on cell lysates, CD26; conditions: HEK293 huCD26+ lysates
T2 construct: expressed in transfected cells; host or cells: HEK293 c-18 (ATCC CRL-10852), pEAK 8 vector; cell lysate coated on the plate
T2 sequence (P27487 whole entry): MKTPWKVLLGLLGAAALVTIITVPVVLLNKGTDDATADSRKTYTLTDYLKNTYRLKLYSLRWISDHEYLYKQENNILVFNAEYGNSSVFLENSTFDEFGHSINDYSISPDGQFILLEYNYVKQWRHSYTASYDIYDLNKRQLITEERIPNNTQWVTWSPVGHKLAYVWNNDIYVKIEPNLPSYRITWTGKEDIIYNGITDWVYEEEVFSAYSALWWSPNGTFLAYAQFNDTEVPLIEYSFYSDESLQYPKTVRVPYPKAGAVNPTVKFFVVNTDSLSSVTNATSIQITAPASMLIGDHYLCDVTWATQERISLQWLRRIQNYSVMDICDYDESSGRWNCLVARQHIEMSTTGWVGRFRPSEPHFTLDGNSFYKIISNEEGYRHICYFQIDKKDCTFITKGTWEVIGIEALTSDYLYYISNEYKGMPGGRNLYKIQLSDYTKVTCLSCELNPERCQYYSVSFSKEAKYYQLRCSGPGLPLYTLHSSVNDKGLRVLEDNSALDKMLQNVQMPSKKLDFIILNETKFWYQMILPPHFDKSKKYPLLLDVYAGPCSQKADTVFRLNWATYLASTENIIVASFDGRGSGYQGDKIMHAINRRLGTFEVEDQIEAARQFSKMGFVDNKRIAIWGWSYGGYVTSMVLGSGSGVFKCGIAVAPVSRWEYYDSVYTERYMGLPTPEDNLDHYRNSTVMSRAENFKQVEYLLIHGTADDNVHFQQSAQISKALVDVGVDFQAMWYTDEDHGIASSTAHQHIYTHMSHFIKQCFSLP
Protocol: FIG. 3: Specificity of Fabs ESC11 and ESC14. A. ELISA of Fabs (100 nM) binding to cell-lysate-coated plates. HT1080 FAP^+ (black bars), HT1080 (white bars), HEK293 huCD26^+ (striped bars), HEK293 muFAP^+ (grey bars), HEK293 mock transfected line (hatched bars). B. FACS analysis of Fab ESC11 (black line), ESC14 (grey line), and a non-binding control Fab (filled) on HT1080 FAP^+ cells (left) and 293 muFAP^+ cells (right)
Screening of Supernatants by ELISA and Flow Cytometry.
Supernatants of the output libraries after each selection round, and supernatants of individual bacterial clones after rounds three, four, and five were screened for FAP-binding phage by ELISA. Ninety-six-well microtiter plates (MAXISORP® Nunc) were coated with cell extracts cell extracts from HEK293 huFAP, HEK293 huCD26, HEK293 muFAP, or mock-transfected HEK293, blocked with 5% milk powder in PBS, incubated with phage-containing supernatants for 1 hr at room temperature and developed using an anti-M13-HRP conjugated antibody. […] Bound Fab antibody was detected with anti-myc tag antibody 9E10, followed by an anti-mouse immunoglobulin-PE conjugate. For competition assays, Fab antibodies were detected using biotinylated anti-myc tag 9E10, followed by strep-PE.

[6] = molecular target: T3, dipeptidylpeptidase activity of FAP (Homo sapiens, UniProt Q12884); assay: Fluorogenic dipeptidyl peptidase activity assay (Ala-Pro-AFC); type: biochemical; conditions: 30 μg/ml IgGs added to extracts of human AF; Ala-Pro-AFC substrate
T3 construct: native FAP expressed on human AF; endogenous in cells
T3 sequence (Q12884 1-760): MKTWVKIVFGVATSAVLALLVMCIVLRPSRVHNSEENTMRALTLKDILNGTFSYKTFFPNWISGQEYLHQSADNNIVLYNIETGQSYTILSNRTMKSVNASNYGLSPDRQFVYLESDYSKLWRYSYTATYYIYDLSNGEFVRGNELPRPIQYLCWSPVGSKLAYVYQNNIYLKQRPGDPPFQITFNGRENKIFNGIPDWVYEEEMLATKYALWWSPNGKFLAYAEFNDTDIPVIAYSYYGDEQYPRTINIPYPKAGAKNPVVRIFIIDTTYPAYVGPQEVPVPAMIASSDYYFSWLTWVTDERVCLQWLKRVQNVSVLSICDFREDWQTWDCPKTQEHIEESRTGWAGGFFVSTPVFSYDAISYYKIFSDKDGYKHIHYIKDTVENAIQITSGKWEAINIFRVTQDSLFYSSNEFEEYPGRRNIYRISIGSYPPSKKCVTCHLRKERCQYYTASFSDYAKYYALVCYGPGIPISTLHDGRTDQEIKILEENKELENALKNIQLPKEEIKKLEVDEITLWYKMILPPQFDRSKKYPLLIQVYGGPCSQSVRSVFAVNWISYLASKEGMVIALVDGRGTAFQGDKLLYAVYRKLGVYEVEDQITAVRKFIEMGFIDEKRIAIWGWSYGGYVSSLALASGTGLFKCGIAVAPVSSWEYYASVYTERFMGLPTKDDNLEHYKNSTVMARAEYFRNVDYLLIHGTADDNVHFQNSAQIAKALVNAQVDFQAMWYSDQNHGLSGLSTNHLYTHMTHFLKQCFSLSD
Protocol: Fluorogenic Dipeptidyl Peptidase Activity Assay.
The diluted extracts were incubated with 0.5 mM Ala-Pro-AFC in 96-well plates at 37° C. and release of free AFC was monitored over time on a fluorescence reader (Victor Wallac, Perkin Elmer), using a 395 nm excitation/530 nm emission filter set. Dipeptidyl peptidase activity was determined from the slope of the fluorescence readings, after subtraction of background activity from a FAP negative sample.

[7] = test system: FAP-expressing cells; assay: Attachment assay to ECM proteins; type: cell-based; conditions: antibodies 10 ug/ml, 30 min preincubation
Protocol: Ninety-six-well microtiter plates (MAXISORP®, Nunc) were coated with indicated proteins at a concentration of 50 ug/ml and incubated over night at 4° C. Plates were washed three times with PBS and then blocked with 1% BSA for 60 min at 37° C. Cells were preincubated for 30 min with indicated antibodies at a final concentration of 10 ug/ml and then added to the coated plates. After 60 min, plates were washed with PBS to remove non adherent cells. Attached cells were stained using cristal violet and lysed by addition of Isopropanol with 0.4M HCl at a final volume of 75 ul/well. OD560 was measured on a ELISA reader.

[8] = test system: HEK293 cells stably transfected with mouse FAP; assay: Detection of apoptotic cells by Annexin V staining, FAP-transfected cells; type: cell-based
[9] = test system: mock-transfected Hek293 cells; assay: Detection of apoptotic cells by Annexin V staining, mock-transfected cells; type: cell-based
Protocol: Detection of Apoptotic Cells by Annexin V Staining.
FAP- and mock-transfected Hek293 cells were incubated in DMEM supplemented with 10% FBS in the presence of indicated amount of antibodies at RT. Control samples were either incubated in the absence of antibodies or at 4° C. in the presence of antibodies. After 60 min, cells were washed and stained with Propidium Iodide (Sigma) and Annexin V (Roche) following the manufacturer's instructions and the percentage of apoptosis was determined using flow cytometry.

Sibrotuzumab: humanized version of F19
Safety and tolerability ([1]; patients, phase I and phase II trials): safe and well tolerated | Accumulation at the tumor area ([1]; trace-labelling with ^131I, imaging analysis): specific accumulation | Anti-tumor or therapeutic activity ([1]; unconjugated antibody, patients): no anti-tumor or any therapeutic activity

B1: ESC11 IgG1: ESC11 variable domains in full human IgG1 format; heavy chain H to Q at position 1 (SEQ ID NO: 2) (antibody, V domains shown)
VH: QVQLQESGPGLVKPSETLSLTCTVSGGSISSNNYYWGWIRQTPGKGLEWIGSIYYSGSTNYNPSLKSRVTISVDTSKNQFSLKLSSVTAADTAVYYCARGARWQARPATRIDGVAFDIWGQGTMVTVSS
VL: ETTLTQSPGTLSLSPGERATLSCRASQTVTRNYLAWYQQKPGQAPRLLMYGASNRAAGVPDRFSGSGSGTDFTLTISRLEPEDFAVYYCQQFGSPYTFGQGTKVEIK
Internalisation of FAP-antibody complexes [2]: most of the antibody had internalized | Competition for FAP binding [3]: cross-inhibition | Down-regulation of FAP expression [4]: down-regulation of FAP expression; also recorded: dose-dependent reduction of FAP

B2: ESC11 Fab fragment: fully human anti-FAP Fab from phage library; VH SEQ ID NO: 1, VL SEQ ID NO: 3 (antibody, listed as Homo sapiens, V domains shown)
VH: HVQLQESGPGLVKPSETLSLTCTVSGGSISSNNYYWGWIRQTPGKGLEWIGSIYYSGSTNYNPSLKSRVTISVDTSKNQFSLKLSSVTAADTAVYYCARGARWQARPATRIDGVAFDIWGQGTMVTVSS
VL: ETTLTQSPGTLSLSPGERATLSCRASQTVTRNYLAWYQQKPGQAPRLLMYGASNRAAGVPDRFSGSGSGTDFTLTISRLEPEDFAVYYCQQFGSPYTFGQGTKVEIK
Down-regulation of FAP expression [4]: could not been observed

B3: ESC14: anti-FAP antibody clone ESC14, format (Fab or IgG) given by the context of the place (antibody, V domains shown)
VH: EVQLVQSGAEVKKPGASVKVSCKASGYTFTSYGISWVRQAPGQGLEWMGWISAYNGNTNYAQKLQGRVTMTTDTSTSTAYMELRSLRSDDTAVYYCARDWSRSGYYLPDYWGQGTLVTVSS
VL: DVVMTQSPLSLPVTLGQPASISCRSSQSLLHSNGYNYLDWYLQRPGQSPHLLIFLGSNRASGVPDRFSGSGSGTDFTLKISRVEAEDVGIYYCMQALQTPPTFGQGTKVEIK
Cross-reaction with CD26 [5]: no binding | Effect on DPP (protease) activity of FAP [6]: no direct influence | Attachment of FAP-expressing cells to ECM proteins (matrigel, type I collagen) [7]: significant inhibition | Induction of apoptosis in the cold ([8]; 4° C.): could not be induced | Induction of apoptosis ([8]; HEK293 stably transfected with mouse FAP, RT, 60 min, Annexin V): underwent apoptosis; also recorded: Induction of apoptosis | Induction of apoptosis in mock-transfected cells [9]: not altered at all | Down-regulation of FAP expression [4]: rapid FAP down-regulation

B4: ESC14 IgG1: ESC14 variable domains cloned into a full human IgG1 format (antibody, V domains shown)
VH: EVQLVQSGAEVKKPGASVKVSCKASGYTFTSYGISWVRQAPGQGLEWMGWISAYNGNTNYAQKLQGRVTMTTDTSTSTAYMELRSLRSDDTAVYYCARDWSRSGYYLPDYWGQGTLVTVSS
VL: DVVMTQSPLSLPVTLGQPASISCRSSQSLLHSNGYNYLDWYLQRPGQSPHLLIFLGSNRASGVPDRFSGSGSGTDFTLKISRVEAEDVGIYYCMQALQTPPTFGQGTKVEIK
Competition for FAP binding [3]: cross-inhibition | Down-regulation of FAP expression [4]: down-regulation of FAP expression; also recorded: dose-dependent reduction of FAP

B5: ESC14 Fab fragment: fully human anti-FAP Fab from phage library; VH SEQ ID NO: 7, VL SEQ ID NO: 8 (antibody, listed as Homo sapiens, V domains shown)
VH: EVQLVQSGAEVKKPGASVKVSCKASGYTFTSYGISWVRQAPGQGLEWMGWISAYNGNTNYAQKLQGRVTMTTDTSTSTAYMELRSLRSDDTAVYYCARDWSRSGYYLPDYWGQGTLVTVSS
VL: DVVMTQSPLSLPVTLGQPASISCRSSQSLLHSNGYNYLDWYLQRPGQSPHLLIFLGSNRASGVPDRFSGSGSGTDFTLKISRVEAEDVGIYYCMQALQTPPTFGQGTKVEIK
Down-regulation of FAP expression [4]: could not been observed
